Experimental data: the supplement of paper PMC7877785
± gives the uncertainty stated by the source.

Experiment: self-splicing fitness, log relative to wild type (ln ratio); higher = more splicing; Tetrahymena group I intron in knt gene, E. coli kanamycin selection, DiMSum; sequences stand for … in CUCUCU…GGAGGGAAAAGUUAUCAGGCAUGCACCUGGUAGCUAGUCUUUAAACCAAUAGAUUGCAUCGGUUUAAAAGGCAAGACCGUCAAAUUGCGGGAAAGGGGUCAACAGCCGUUCAGUACCAAGUCUCAGGGGAAACUUUGAGAUGGCCUUGCAAAGGGUAUGGUAAUAAGCUGACGGACAUGGUCCUAACCACGCAGCCAAGUCCUAAGUCAACAGAUCUUCUGUUGAUAUGGAUGCAGUUCACAGACUAAAUGUCGGUCGGGGAAGAUGUAUUCUUCUCAUAAGAUAUAGUCGGACCUCUCCUUAAUGGGAGCUAGCGGAUGAAGUGAUGCAACACUGGAGCCGCUGGGAACUAAUUUGUAUGCGAAAGUAUAUUGAUUAGUUUUGGAGUACUCGUGGUCG
Procedure, shortened: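 Pooled colonies went to amplicon sequencing on an Illumina HiSeq 2500 after six replicate transformations. The plates were LB agar with 100 μg/mL carbenicillin, 50 μM IPTG and 0.2% rhamnose, with or without 25 μg/mL kanamycin, incubated overnight at 37°C or 30°C. The E. coli BL21(DE3) library had all eight P1ex-region intron nucleotides randomised, the intron placed in the knt kanamycin-resistance gene on pET-22b(+). DiMSum fitness is the error-weighted combination of replicate fold changes, kanamycin against none, normalised to wild type.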

Sequence | self-splicing fitness (ln) (30 °C) | self-splicing fitness (ln) (37 °C)
GCGCAGCAAUAUUACGUGCG | -4.36 ± 0.28 | -2.7 ± 0.21
GCGCAGCAAUAUUACGUUAU | -0.78 ± 0.048 | -0.0311 ± 0.064
GCGGAGCAAUAUUACGAACU |  | -0.902 ± 0.47
GCGGAGCAAUAUUACGAAGU | -3.58 ± 0.43 | -2.08 ± 0.36
GCGGAGCAAUAUUACGAAUU |  | -1.1 ± 0.33
GCGGAGCAAUAUUACGAGAC | -2.85 ± 0.38 | 
GCGGAGCAAUAUUACGAGCU | -2.02 ± 0.27 | 0.307 ± 0.24
GCGGAGCAAUAUUACGAUGC | -1.81 ± 0.37 | 
GCGGAGCAAUAUUACGAUUA | -2.93 ± 0.22 | -1.73 ± 0.23
GCGGAGCAAUAUUACGCAGU | -3.68 ± 0.45 | -1.79 ± 0.39
GCGGAGCAAUAUUACGCGCA | -2.93 ± 0.3 | -0.701 ± 0.17
GCGGAGCAAUAUUACGCGUA | -2.77 ± 0.29 | -1.53 ± 0.15
GCGGAGCAAUAUUACGGCAA |  | -1.74 ± 0.18
GCGGAGCAAUAUUACGGGGA | -2.69 ± 0.39 | -3.38 ± 0.42
GCGGAGCAAUAUUACGGUUU |  | -2.53 ± 0.39
GCGGAGCAAUAUUACGUAGG | -4.18 ± 0.34 | -0.489 ± 0.15
GCGGAGCAAUAUUACGUGCA | -2.52 ± 0.29 | -0.813 ± 0.18
GCGGAGCAAUAUUACGUUUA |  | -2.33 ± 0.37
GCGGAGCAAUAUUACGUUUG | -2.86 ± 0.17 | -2.48 ± 0.27
GCGUAGCAAUAUUACGAACC |  | -1.63 ± 0.36
GCGUAGCAAUAUUACGACCG | -1.5 ± 0.16 | -0.0305 ± 0.2
GCGUAGCAAUAUUACGAGAU | -2.22 ± 0.12 | -2.25 ± 0.17
GCGUAGCAAUAUUACGAGUU | -2.87 ± 0.092 | -0.803 ± 0.097
GCGUAGCAAUAUUACGAUUG | -2.26 ± 0.18 | -1.98 ± 0.21
GCGUAGCAAUAUUACGCACA |  | -1.71 ± 0.47
GCGUAGCAAUAUUACGCCUU | -3.7 ± 0.33 | -1.3 ± 0.21

Sequence | self-splicing fitness (ln) (30 °C) | self-splicing fitness (ln) (37 °C)
GCGUAGCAAUAUUACGCGAC | -2.5 ± 0.11 | -1.42 ± 0.12
GCGUAGCAAUAUUACGCUUU | -3.68 ± 0.22 | -3.98 ± 0.19
GCGUAGCAAUAUUACGGAAG | -3.56 ± 0.31 | -1.98 ± 0.33
GCGUAGCAAUAUUACGGCCC | 0.00127 ± 0.32 | -2.25 ± 0.39
GCGUAGCAAUAUUACGGGUC | -3.34 ± 0.29 | -1.54 ± 0.21
GCGUAGCAAUAUUACGGUGG | -4.1 ± 0.31 | -3.39 ± 0.39
GCGUAGCAAUAUUACGUAUC | -3.35 ± 0.38 | -0.739 ± 0.2
GCGUAGCAAUAUUACGUGAA | -2.92 ± 0.15 | -1.49 ± 0.13
GCGUAGCAAUAUUACGUGCG | -4.01 ± 0.17 | -1.62 ± 0.14
GCGUAGCAAUAUUACGUUUA | -2.16 ± 0.15 | -2.13 ± 0.15
GCUAAGCAAUAUUACGAAUG | -0.647 ± 0.082 | -0.433 ± 0.11
GCUAAGCAAUAUUACGAAUU | -2.39 ± 0.18 | -0.0664 ± 0.13
GCUAAGCAAUAUUACGACUA | -1.7 ± 0.19 | -0.865 ± 0.23
GCUAAGCAAUAUUACGAGGU | -2.03 ± 0.19 | -1.51 ± 0.15
GCUAAGCAAUAUUACGAGUG | -1.09 ± 0.048 | -0.811 ± 0.06
GCUAAGCAAUAUUACGAGUU | -1.33 ± 0.082 | -0.818 ± 0.11
GCUAAGCAAUAUUACGCAAA | -2.6 ± 0.26 | -0.986 ± 0.17
GCUAAGCAAUAUUACGCAGA | -2.53 ± 0.26 | -0.61 ± 0.21
GCUAAGCAAUAUUACGCAUC | -0.687 ± 0.13 | -1.06 ± 0.21
GCUAAGCAAUAUUACGCGGA | -2.73 ± 0.2 | -1.1 ± 0.15
GCUAAGCAAUAUUACGCGUG | -1.88 ± 0.092 | -1.44 ± 0.12
GCUAAGCAAUAUUACGCGUU | -1.23 ± 0.083 | -0.649 ± 0.1
GCUAAGCAAUAUUACGCUAU | -1.91 ± 0.14 | -2.08 ± 0.17
GCUAAGCAAUAUUACGCUGU |  | -3.18 ± 0.47
GCUAAGCAAUAUUACGGAAU | -1.68 ± 0.12 | -0.857 ± 0.13
